Measured values published in patent publication US20140072558A1 (ANTIBODY AND RECEPTOR THERAPEUTICS, published 2014).

B1: DLK1-Fc fusion protein (Fc fusion)
chain: ECFPACNPQNGFCEDDNVCRCQPGWQGPLCDQCVTSPGCLHGLCGEPGQCICTDGWDGELCDRDVRACSSAPCANNGTCVSLDDGLYECSCAPGYSGKDCQKKDGPCVINGSPCQHGGTCVDDEGRASHASCLCPPGFSGNFCEIVANSCTPNPCENDGVCTDIGGDFRCRCPAGFIDKTCSRPVTNCASSPCQNGGTCLQHTQVSYECLCKPEFTGLTCVKKRALSPQQVTRLPSGYGLAYRLTPGVHELPVQQPEHRILKVSMKELNKKTPLLTEG
notes: Water-soluble DLK1 joined to a human antibody Fc region; also called DLK1-Fc-FITC; not shown: human antibody Fc region
B9: activin A (ligand, UniProt P08476 311-426, looked up)
chain: GLECDGKVNICCKKQFFVSFKDIGWNDWIIAPSGYHANYCEGECPSHIAGTSGSSLSFHSTVINHYRMRGHSPFANLKSCCVPTKLRPMSMLYYDDGQNIIKKDIQNMIVEECGCS
notes: also called ligand of ACVR2B

Columns and labels:
[1] = target: T1, activin receptor type II B (ACVR2B) expressed in cells (UniProt Q13705 19-512, limits assumed); experiment: flow cytometry, 1 ug DLK1-Fc-FITC on 293E cells
T1 construct: whole, on cells; also called ACVR2B-overexpressed cell line
Protocol: To confirm binding between water-soluble DLK1 and ACVR2B on actual cells, an experiment was performed using flow cytometry. The experiment was performed using CantoII (BD), and an experiment method was summarized as follows. […] The harvested cells were washed with cold DPBS twice, 1 μg of DLK1-Fc-FITC was added to react at 4° C. for 2 hours. DLK1-Fc-FITC used in the reaction was manufactured using a protein FITC labeling kit (Pierce). After the reaction, washing with 1% PBA (1% BSA in DPBS) buffer was performed, a degree of binding was determined by flow cytometry, and the results are shown in FIG. 15. In addition, the cells used above were subjected to western blotting to confirm the expression of ACVR2B (FIG. 14).

DLK1-Fc fusion protein [2] = target: B1; experiment: scFv-phage ELISA; OD on DLK1 divided by OD on a-myc
BSA = BSA (UniProt P02769 25-607); experiment: ELISA: BSA coated as control for non-specific binding, ACVR2B-Fc serially diluted, anti-human IgG-HRP
Protocol: (§1) Binding between ACVR2B and water-soluble DLK1 was confirmed by enzyme immunoassay (ELISA). To this end, 1 μg/ml of FLAG-tagged water-soluble DLK1 was coated on an immunoplate (Nunc) at 4° C. for 16 hours. Here, as a control for detecting non-specific binding, BSA was used. The coated plate was washed with PBST (0.05% Tween 20) three times, and blocked with 5% skim milk PBST. ACVR2B-Fc prepared by attaching Fc to an extracellular part of ACVR2B was subjected to serial dilution, and reacted at room temperature for 1 hour. After the reaction, the cells were washed with PBST (0.05% Tween 20) three times, and […] (1:5000) was incubated for 1 hour to measure a binding degree. After the reaction, the cells were washed with PBST (0.05% Tween 20) three times, a color reaction was performed using TMB (Sigma), and 2.5 M H₂SO₄ was added to stop the reaction. And then optical density was measured at 450 nm.

[3] = target: T2, FLAG-tagged water-soluble DLK1 (Homo sapiens (Human), UniProt P80370 25-302); experiment: ELISA
T2 construct: also called FLAG-DLK1; not shown: FLAG tag
T2 sequence: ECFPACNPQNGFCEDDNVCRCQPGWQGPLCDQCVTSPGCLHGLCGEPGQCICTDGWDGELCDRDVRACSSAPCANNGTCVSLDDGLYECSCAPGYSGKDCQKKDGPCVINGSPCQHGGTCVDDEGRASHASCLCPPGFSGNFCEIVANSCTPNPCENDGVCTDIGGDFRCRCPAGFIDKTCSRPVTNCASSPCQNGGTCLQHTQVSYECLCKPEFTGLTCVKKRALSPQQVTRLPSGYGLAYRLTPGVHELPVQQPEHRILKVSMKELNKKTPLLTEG
Protocol: as §1

DLK1-Fc fusion protein [4] = target: B1; experiment: ELISA: activin A coated, DLK1-Fc added
activin A = target: B9; experiment: ELISA: activin A coated 50 ng/ml
Protocol: To examine whether water-soluble DLK1 competitively bind to the ACVR2B receptor with activin A, enzyme immunoassay was performed. 50 ng/ml of activin A was coated and reacted with ACVR2B-Fc and FLAG-DLK1, and then the binding was detected. Here, ACVR2B was fixed to a concentration of 2 nM, FLAG-DLK1 was treated to have a concentration of 1 to 16 nM, and then a degree of competitive binding was measured. As controls, Fc and ACVR1A-Fc not binding to activin A were used.

BSA, sequence (P02769 25-607 limits assumed): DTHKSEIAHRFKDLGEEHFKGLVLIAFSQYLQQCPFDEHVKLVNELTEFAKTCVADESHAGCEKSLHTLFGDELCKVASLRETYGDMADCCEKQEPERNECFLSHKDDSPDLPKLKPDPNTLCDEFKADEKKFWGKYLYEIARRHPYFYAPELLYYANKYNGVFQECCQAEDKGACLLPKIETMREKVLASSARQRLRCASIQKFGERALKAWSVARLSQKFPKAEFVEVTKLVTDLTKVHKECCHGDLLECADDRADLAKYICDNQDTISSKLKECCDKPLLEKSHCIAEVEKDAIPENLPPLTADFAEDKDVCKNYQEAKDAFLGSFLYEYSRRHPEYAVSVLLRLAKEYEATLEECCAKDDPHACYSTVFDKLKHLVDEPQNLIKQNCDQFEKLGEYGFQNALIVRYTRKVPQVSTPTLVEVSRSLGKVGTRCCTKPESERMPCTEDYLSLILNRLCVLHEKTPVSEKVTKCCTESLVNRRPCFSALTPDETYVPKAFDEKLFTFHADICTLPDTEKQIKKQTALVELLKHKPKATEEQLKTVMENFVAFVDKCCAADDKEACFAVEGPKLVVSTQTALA

B1
binding result [1]: binds

B2: DLK1A04 (scFv, V domains shown)
VH: QVQLVESGAEVKKPGASVKVSCKASGYTFKDYAIHWVRQAPGQRLEWMGWINPGSGNTKYSHNFEGRVILTRDASANTAYLELPSLRSEDTAVYYCARSVSAYGSNYFDPWGQGTLITVSS
VL: DIQMTQSPSSLSASVGDRVTITCQASQDISNYLNWYQQKPGKAPKLLIYSTSNLQSGVPSRFSGSGSGTDFTLTISSLQPEDFATYYCQQLNSYPLTFGGGTKVDIK
notes: Monoclonal scFv on phage; VH1-3, L8
Ratio (DLK1-Fc fusion protein [2]): 6.15

B3: DLK1A05 (scFv, V domains shown)
VH: QMQLVESGGGLVQPGRSLRLSCAASGFTFDEHAMHWVRQAPGKGLEWVSGINWNSGKTGYADSVKGRFTISRDNGKNSLYLQMNSLRAEDTAVYYCAKSGGYGGNTNWYFDLWGRGTLVTVSS
VL: QFVLTQPPSVSGAPGQNVTISCIGTSSNIGVGYDVHWYQQVPGTAPKLLVYGNNNRPSGVPDRFSGSKSGTSASLAITGLQAEDEADYYCQSYDSRLGVVFGGGTKLTVL
notes: Monoclonal scFv on phage; VH3-9, V1-13
Ratio (DLK1-Fc fusion protein [2]): 3.81

B4: ACVR2B-Fc (Fc fusion, UniProt Q13705 19-137, looked up)
chain: SGRGEAETRECIYYNANWELERTNQSGLERCEGEQDKRLHCYASWRNSSGTIELVKKGCWLDDFNCYDRQECVATEENPQVYFCCCEGNFCNERFTHLPEAGGPEVTYEPPPTAPTLLT
notes: extracellular domain; Prepared by attaching Fc to an extracellular part of ACVR2B; not shown: Fc
binding result (BSA): no binding
binding result [3]: binds

B5: DLK1A10 (scFv, V domains shown)
VH: QVQLVESGGGLVQPGRSLRLSCAASGFTFDDYAMHWVRQAPGKGLEWVSGISWNSGSIGYADSVKGRFTISRDNAKNSLYLQMNSLRAEDTAVYYCARGPGLATGKGYADYWGQGTLVTVSS
VL: DIQMTQSPSSVSASVGDRVTITCRASQRISSWLAWYQQKPGRAPKLLIHSASTLHNGVPSRFSGSASGTDFTLTISSLQPEDYAIYYCQQGHSFPYTFGQGTKLEIK
notes: Monoclonal scFv on phage; VH3-9
Ratio (DLK1-Fc fusion protein [2]): 2.21

B6: DLK1B09 (scFv, V domains shown)
VH: QMQLVESGGRLVRPGGSLRLSCAASGFPFTSYAMNWVRQTPGKGLEWVSTITATSGKTYYADSVKGRFTISRDNSRNTLFLQMNSLRAEDTAVYYCVRGESCSGGACSDFDYWGQGALVTVSS
VL: QLVLTQPASVSGSPGQSVTISCTGTSSDIGRYNRVSWYQHHPGKAPKLILNDVTTRPSGFSNRFSGSKSGNTASLTISGLQAEDEADYSCGSYAGSYTYVFGTGTKVTVL
notes: Monoclonal scFv on phage; VH3-23, V1-4; also called B09 (phage clone)
Ratio (DLK1-Fc fusion protein [2]): 25.3

B7: DLK1H06 (scFv, V domains shown)
VH: QVQLVQSGGGLIQPGGSLRLSCAASGFTFSLYGMSWVRQAPGKGLEWVSSIPGSGTRTHYADSVKGRFTISRDNSKNTLFLQMNSLRAEDTAVYYCAKSTAYLFDYWGPGTLVTVSS
VL: DIQMTQSPATLSLSPGERATLSCRASQSIRHYLAWYQQKPGQAPRLLIHGASSRATGIPDRFSGSGSGTDFTLTISRLEPEDFAVYYCQHYGSPLHSFGPGTKVEIK
notes: Monoclonal scFv on phage; VH3-23, A27
Ratio (DLK1-Fc fusion protein [2]): 2.47

B8: DLK1H12 (scFv, V domains shown)
VH: QVQLVQSGGGLVKPGGSLRLSCAASEFTFSDYYMSWVRQAPGKGLEWLSYISGSGITTYYADSVKGRFTISRDNGKKSLYLEMNSLRAEDTAVYYCARLQGHCSGGACSNWFDAWGQGTLITVSS
VL: DIQMTQSPSSLSASVGDRLTITCRASQSILTYLNWYQQKPGKAPKLLIYAASSLQRGVPSRFSGSGSGTDFTLTISGLQPEDFATYYCQQGYGTPYTFGQGTKVDIK
notes: Monoclonal scFv on phage; VH3-11, O12
Ratio (DLK1-Fc fusion protein [2]): 4.75

B9
binding result (DLK1-Fc fusion protein [4]): no binding

B10: ACVR1A-Fc (Fc fusion, UniProt Q04771 21-123, looked up)
chain: MEDEKPKVNPKLYMCVCEGLSCGNEDHCEGQQCFSSLSINDGFHVYQKGCFQVYEQGKMTCKTPPSPGQAVECCQGDWCNRNITAQLPTKGKSFPGTQNFHLE
notes: Control protein; not shown: Fc
binding result (activin A): no binding
